Positions count from the first letter of the chain named. Values belong to the binder of their own block, whether it stands above or below them.
Target: T1, human pancreatic α-amylase (human, UniProt P04746)
T1 sequence: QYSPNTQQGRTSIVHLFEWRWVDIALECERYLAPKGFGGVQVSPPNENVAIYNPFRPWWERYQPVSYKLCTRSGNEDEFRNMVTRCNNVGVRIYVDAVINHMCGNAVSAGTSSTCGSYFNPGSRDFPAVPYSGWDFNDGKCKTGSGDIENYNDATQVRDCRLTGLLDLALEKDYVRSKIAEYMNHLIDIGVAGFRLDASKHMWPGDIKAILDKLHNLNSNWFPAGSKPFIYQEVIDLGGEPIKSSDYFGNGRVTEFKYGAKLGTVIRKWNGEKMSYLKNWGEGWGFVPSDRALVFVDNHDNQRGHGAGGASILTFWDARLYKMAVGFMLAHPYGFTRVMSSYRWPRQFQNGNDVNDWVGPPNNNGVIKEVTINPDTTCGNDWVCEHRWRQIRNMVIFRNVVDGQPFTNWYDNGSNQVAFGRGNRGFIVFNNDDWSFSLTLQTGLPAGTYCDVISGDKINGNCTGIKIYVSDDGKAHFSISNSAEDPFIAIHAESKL
Experiment: cell-based or functional assay

Amylase inhibitory activity (U/mg): 840 U/mg
B1: Protein 0.28 AI (other)
chain: SGPWSWCNPATGYKVSALTGCRAMVKLQCVGSQVPEAVLRDCCQQLADINNEWCRCGDLSSMLRAVYQELGVREGKEVLPGCRKEVMKLTAASVPEVCKVPIPNPSGDRAGVCYGDWCAYPDV

Amylase inhibitory activity (U/mg): 20300 U/mg
B2: Protein 0.19 AI (other)
chain: SGPWMCYPGQAFQVPALPACRPLLRLQCNGSQVPEAVLRDCCQQLAHISEWCRCGALYSMLDSMYKEHGAQEGQAGTGAFPRCRREVVKLTAASITAVCRLPIVVDASGDGAYVCKDVAAYPDA

Amylase inhibitory activity (U/mg): 26100 U/mg
B3: Protein 0.26 AI (other)
chain: SGPWMCYPGYAFKVPALPGCRPVLKLQCNGSQVPEAVLRDCCQQLADISEWCRCGALYSMLDSMYKEHGVQEGQAGTGAFPSCRREVVKLTAASITAVCKLPIVIDASGDGAYVCKGVAAYPDA

Amylase inhibitory activity (U/mg): 3940 U/mg
B4: Protein 0.53 AI (other)
chain: B2 chain with A19G, R25K, H47D, C52P, A70V, Q71S, R82S

Amylase inhibitory activity (U/mg): 20500 U/mg
B5: Protein (A) (other)
chain: SGPWMCYPGYAFKVPALPGCRPVLKLQCNGSQVPEAVLRDCCQQLADISEWCRCGALYSMLDSMYKEHGVQEGQAGTGAFPSCRREVVKLTAASITAVCKLPIVIDASGDGAYVCKGVAAYP
